Data as given in US20260242735A1 (UNIVERSIT T BASEL, published 2026).

Tests used:
Experiment in all cases: alanine scan, flow cytometry, HEK293-T;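 also: antibody binding to each alanine-substituted CD33 mutant expressed transiently in HEK293-T, read as fluorescence minus background, mean of duplicates, relative to wild-type CD33 set as 100%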
[1] = molecular target: human CD33 T226A (human, UniProt P20138 18-364)
[2] = molecular target: human CD33 A168S (human, UniProt P20138 18-364)
[3] = molecular target: human CD33 G207A (human, UniProt P20138 18-364)
[4] = molecular target: human CD33 Q236A (human, UniProt P20138 18-364)
[5] = molecular target: human CD33 R190A (human, UniProt P20138 18-364)
[6] = molecular target: human CD33 I227A (human, UniProt P20138 18-364)
[7] = molecular target: human CD33 L197A (human, UniProt P20138 18-364)
[8] = molecular target: human CD33 T232A (human, UniProt P20138 18-364)
[9] = molecular target: human CD33 H193A (human, UniProt P20138 18-364)
[10] = molecular target: human CD33 C169A (human, UniProt P20138 18-364)
[11] = molecular target: human CD33 G218A (human, UniProt P20138 18-364)
[12] = molecular target: human CD33 T239A (human, UniProt P20138 18-364)
[13] = molecular target: human CD33 P238A (human, UniProt P20138 18-364)
[14] = molecular target: human CD33 P203A (human, UniProt P20138 18-364)
[15] = molecular target: human CD33 P175A (human, UniProt P20138 18-364)
[16] = molecular target: human CD33 R225A (human, UniProt P20138 18-364)
[17] = molecular target: human CD33 V221A (human, UniProt P20138 18-364)
human CD33 V221A, sequence (P20138 18-364 V221A limits assumed): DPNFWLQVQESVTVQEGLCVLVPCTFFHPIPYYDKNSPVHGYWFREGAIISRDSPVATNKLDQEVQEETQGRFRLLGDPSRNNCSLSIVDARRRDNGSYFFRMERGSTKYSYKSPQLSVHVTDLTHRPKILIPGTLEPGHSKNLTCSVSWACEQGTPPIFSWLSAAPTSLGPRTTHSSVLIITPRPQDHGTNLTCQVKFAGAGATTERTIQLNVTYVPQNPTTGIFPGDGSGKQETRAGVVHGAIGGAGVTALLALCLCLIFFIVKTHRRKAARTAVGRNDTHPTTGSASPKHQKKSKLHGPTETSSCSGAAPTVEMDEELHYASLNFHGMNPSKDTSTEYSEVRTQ

[18] = molecular target: human CD33 I176A (human, UniProt P20138 18-364)
[19] = molecular target: human CD33 S181A (human, UniProt P20138 18-364)
[20] = molecular target: human CD33 P189A (human, UniProt P20138 18-364)
[21] = molecular target: human CD33 A219S (human, UniProt P20138 18-364)
[22] = molecular target: human CD33 H206A (human, UniProt P20138 18-364)
[23] = molecular target: human CD33 T302A (human, UniProt P20138 18-364)
human CD33 T302A, sequence (P20138 18-364 T302A limits assumed): as the sequence (P20138 18-364 V221A limits assumed) above, with A204V, T285A counted along it

[24] = molecular target: human CD33 A293S (human, UniProt P20138 18-364)
human CD33 A293S, sequence (P20138 18-364 A293S limits assumed): as the sequence (P20138 18-364 V221A limits assumed) above, with A204V, A276S counted along it

[25] = molecular target: human CD33 T284A (human, UniProt P20138 18-364)
human CD33 T284A, sequence (P20138 18-364 T284A limits assumed): as the sequence (P20138 18-364 V221A limits assumed) above, with A204V, T267A counted along it

[26] = molecular target: human CD33 T303A (human, UniProt P20138 18-364)
human CD33 T303A, sequence (P20138 18-364 T303A limits assumed): as the sequence (P20138 18-364 V221A limits assumed) above, with A204V, T286A counted along it

[27] = molecular target: human CD33 V258A (human, UniProt P20138 18-364)
human CD33 V258A, sequence (P20138 18-364 V258A limits assumed): as the sequence (P20138 18-364 V221A limits assumed) above, with A204V, V241A counted along it

[28] = molecular target: human CD33 G266A (human, UniProt P20138 18-364)
human CD33 G266A, sequence (P20138 18-364 G266A limits assumed): as the sequence (P20138 18-364 V221A limits assumed) above, with A204V, G249A counted along it

[29] = molecular target: human CD33 T268A (human, UniProt P20138 18-364)
human CD33 T268A, sequence (P20138 18-364 T268A limits assumed): as the sequence (P20138 18-364 V221A limits assumed) above, with A204V, T251A counted along it

[30] = molecular target: human CD33 A306S (human, UniProt P20138 18-364)
human CD33 A306S, sequence (P20138 18-364 A306S limits assumed): as the sequence (P20138 18-364 V221A limits assumed) above, with A204V, A289S counted along it

[31] = molecular target: human CD33 G249A (human, UniProt P20138 18-364)
human CD33 G249A, sequence (P20138 18-364 G249A limits assumed): as the sequence (P20138 18-364 V221A limits assumed) above, with A204V, G232A counted along it

[32] = molecular target: human CD33 S314A (human, UniProt P20138 18-364)
human CD33 S314A, sequence (P20138 18-364 S314A limits assumed): as the sequence (P20138 18-364 V221A limits assumed) above, with A204V, S297A counted along it

[33] = molecular target: human CD33 H310A (human, UniProt P20138 18-364)
human CD33 H310A, sequence (P20138 18-364 H310A limits assumed): as the sequence (P20138 18-364 V221A limits assumed) above, with A204V, H293A counted along it

[34] = molecular target: human CD33 D246A (human, UniProt P20138 18-364)
human CD33 D246A, sequence (P20138 18-364 D246A limits assumed): as the sequence (P20138 18-364 V221A limits assumed) above, with A204V, D229A counted along it

[35] = molecular target: human CD33 H317A (human, UniProt P20138 18-364)
human CD33 H317A, sequence (P20138 18-364 H317A limits assumed): as the sequence (P20138 18-364 V221A limits assumed) above, with A204V, H300A counted along it

[36] = molecular target: human CD33 V231A (human, UniProt P20138 18-364)

Binder | Mean % WT Binding [1] [%] | Mean % WT Binding [2] [%] | Mean % WT Binding [3] [%] | Mean % WT Binding [4] [%] | Mean % WT Binding [5] [%] | Mean % WT Binding [6] [%] | Mean % WT Binding [7] [%] | Mean % WT Binding [23] [% WT binding] | Mean % WT Binding [24] [% WT binding] | Mean % WT Binding [25] [% WT binding] | Mean % WT Binding [26] [% WT binding] | Mean % WT Binding [27] [% WT binding] | Mean % WT Binding [28] [% WT binding] | Mean % WT Binding [29] [% WT binding] | Mean % WT Binding [30] [% WT binding] | Mean % WT Binding [31] [% WT binding] | Mean % WT Binding [32] [% WT binding] | Mean % WT Binding [33] [% WT binding] | Mean % WT Binding [34] [% WT binding] | Mean % WT Binding [35] [% WT binding] | also measured
Refmab #4 (antibody, V domains shown, In the alanine scan antibodies were used as IgG or Fab) VH: QVQLVQSGAEVKKPGESVKVSCKASGYTFTNYGMNWVKQAPGQGLEWMGWINTYTGEPTYADKFQGRVTMTTDTSTSTAYMEIRNLGGDDTAVYYCARWSWSDGYYVYFDYWGQGTSVTVSS VL: DIVMTQSPDSLTVSLGERTTINCKSSQSVLDSSTNKNSLAWYQQKPGQPPKLLLSWASTRESGIPDRFSGSGSGTDFTLTIDSPQPEDSATYYCQQSAHFPITFGQGTRLEIK | 91.9 | 99.9 | 87.1 | 103 | 109 | 78.7 | 95.3 | – | – | – | – | – | – | – | – | – | – | – | – | – | Mean % WT Binding [8]: 57.4%; Mean % WT Binding [9]: 103%; Mean % WT Binding [10]: 69.3%; Mean % WT Binding [11]: 102%; Mean % WT Binding [12]: 102%; Mean % WT Binding [13]: 117%; Mean % WT Binding [14]: 112%; Mean % WT Binding [15]: 106%; Mean % WT Binding [16]: 108%; Mean % WT Binding [17]: 104%; Mean % WT Binding [18]: 124%; Mean % WT Binding [19]: 114%; Mean % WT Binding [20]: 98.2%; Mean % WT Binding [21]: 112%; Mean % WT Binding [22]: 97.7%
Refmab #4 (antibody, V domains shown, The alanine scan used IgG or Fab) VH: QVQLVQSGAEVKKPGESVKVSCKASGYTFTNYGMNWVKQAPGQGLEWMGWINTYTGEPTYADKFQGRVTMTTDTSTSTAYMEIRNLGGDDTAVYYCARWSWSDGYYVYFDYWGQGTSVTVSS VL: DIVMTQSPDSLTVSLGERTTINCKSSQSVLDSSTNKNSLAWYQQKPGQPPKLLLSWASTRESGIPDRFSGSGSGTDFTLTIDSPQPEDSATYYCQQSAHFPITFGQGTRLEIK | – | – | – | – | – | – | – | 98.2 | 106 | 111 | 81.2 | 95.8 | 112 | 100 | 79.3 | 111 | 95.5 | 94.3 | 104 | 82.6 | –
Refmab #1 (antibody, V domains shown, In the alanine scan antibodies were used as IgG or Fab; also called hP67.6) VH: EVQLVQSGAEVKKPGSSVKVSCKASGYTITDSNIHWVRQAPGQSLEWIGYIYPYNGGTDYNQKFKNRATLTVDNPTNTAYMELSSLRSEDTAFYYCVNGNPWLAYWGQGTLVTVSS VL: DIQLTQSPSTLSASVGDRVTITCRASESLDNYGIRFLTWFQQKPGKAPKLLMYAASNQGSGVPSRFSGSGSGTEFTLTISSLQPDDFATYYCQQTKEVPWSFGQGTKVEVK | 92 | 88.4 | 94.1 | 89.5 | 96.6 | 86.7 | 95.5 | – | – | – | – | – | – | – | – | – | – | – | – | – | Mean % WT Binding [36]: 100%; Mean % WT Binding [8]: 76.6%; Mean % WT Binding [9]: 99.9%; Mean % WT Binding [10]: 75.8%; Mean % WT Binding [11]: 79.2%; Mean % WT Binding [12]: 79.7%; Mean % WT Binding [13]: 101%; Mean % WT Binding [14]: 103%; Mean % WT Binding [15]: 89.4%; Mean % WT Binding [16]: 97.8%; Mean % WT Binding [17]: 91.9%; Mean % WT Binding [18]: 93.5%; Mean % WT Binding [19]: 85.5%; Mean % WT Binding [20]: 89.2%; Mean % WT Binding [21]: 104%; Mean % WT Binding [22]: 98.8%
Refmab #2 (antibody, V domains shown, The alanine scan used IgG or Fab) VH: QVQLVQSGAEVKKPGSSVKVSCKASGGTFSDYAISWVRQAPGQGLEWMGRIIPILGVADYAQKFQGRVTITADKSTRTAYMELSSLRSEDTAVYYCARNWADAFDIWGQGTMVTVSS VL: DIQLTQSPSSLSASVGDRVTITCRASQGISSVLAWYQQKPGKAPKLLIYDASSLESGVPSRFSGSGSGTDFTLTISSLQPEDFATYYCQQFDSSITFGQGTKLEIK | – | – | – | – | – | – | – | 90.7 | 114 | 119 | 96.7 | 111 | 116 | 107 | 85.1 | 127 | 95.5 | 112 | 114 | 99.8 | –

The next lines start with results.

Mean % WT Binding [1] [%] | Mean % WT Binding [2] [%] | Mean % WT Binding [3] [%] | Mean % WT Binding [4] [%] | Mean % WT Binding [5] [%] | Mean % WT Binding [6] [%] | Mean % WT Binding [7] [%] | Mean % WT Binding [23] [% WT binding] | Mean % WT Binding [24] [% WT binding] | Mean % WT Binding [25] [% WT binding] | Mean % WT Binding [26] [% WT binding] | Mean % WT Binding [27] [% WT binding] | Mean % WT Binding [28] [% WT binding] | Mean % WT Binding [29] [% WT binding] | Mean % WT Binding [30] [% WT binding] | Mean % WT Binding [31] [% WT binding] | Mean % WT Binding [32] [% WT binding] | Mean % WT Binding [33] [% WT binding] | Mean % WT Binding [34] [% WT binding] | Mean % WT Binding [35] [% WT binding] | Binder | also measured
– | – | – | – | – | – | – | 95 | 90.6 | 92.8 | 94 | 99.8 | 100 | 102 | 102 | 89.2 | 96.2 | 97.4 | 85.2 | 80.8 | Refmab #1 (antibody, V domains shown, The alanine scan used IgG or Fab; also called hP67.6) VH: EVQLVQSGAEVKKPGSSVKVSCKASGYTITDSNIHWVRQAPGQSLEWIGYIYPYNGGTDYNQKFKNRATLTVDNPTNTAYMELSSLRSEDTAFYYCVNGNPWLAYWGQGTLVTVSS VL: DIQLTQSPSTLSASVGDRVTITCRASESLDNYGIRFLTWFQQKPGKAPKLLMYAASNQGSGVPSRFSGSGSGTEFTLTISSLQPDDFATYYCQQTKEVPWSFGQGTKVEVK | –
– | – | – | – | – | – | – | 101 | 72.9 | 83.2 | 72.7 | 106 | 97.8 | 91.5 | 111 | 132 | 139 | 101 | 115 | 157 | Refmab #3 (antibody, V domains shown, The alanine scan used IgG or Fab) VH: QVQLVQSGAEVKKPGSSVKVSCKASGYTFTDYNMHWVRQAPGQGLEWIGYIYPYNGGTGYNQKFKSKATITADESTNTAYMELSSLRSEDTAVYYCARGRPAMDYWGQGTLVTVSS VL: DIQMTQSPSSLSASVGDRVTITCRASESVDNYGISFMNWFQQKPGKAPKLLIYAASNQGSGVPSRFSGSGSGTDFTLTISSLQPDDFATYYCQQSKEVPWTFGQGTKVEIK | –
